We go through two substances from US20010023068.

This data set deals with G-protein beta/gamma subunits (Gβγ).

As for “p110g/SVP4b heterodimer (GFP-fusion tagged p110gamma co-expressed with SVP4b in SF21 cells)”, the “fold stimulation of 32P incorporation into PIP3 in the presence of Gβγ over that in its absence” value is on record as “a 9.4 fold stimulation of ^32P incorporation into PIP3 over that seen in the absence of Gβγ was seen with the p110g/SVP4b heterodimer” and the pmol incorporation of 32P into PIP3, Plus Gβγ amounted to 10.3 pmol.
In the case of “p110g/p101 heterodimer (GFP-fusion tagged p110gamma co-expressed with full length p101 in SF21 cells)”, the “fold stimulation of 32P incorporation into PIP3 in the presence of Gβγ over basal activity” value is given as “the p101/p101 heterodimer produced a 4.6 fold stimulation over basal activity in the presence of Gβγ” and the pmol incorporation of 32P into PIP3, Plus Gβγ was 13.5 pmol.
